# T1: Presegetalin A1[14,32]V17A
# T1 chain: GVPAWAFQAKDVENASAPV
# T2: Presegetalin A1[14,32]P16A
# T2 chain: GVAVWAFQAKDVENASAPV
# T3: Presegetalin A1[14,32]W18A
# T3 chain: GVPVAAFQAKDVENASAPV
# T4: Presegetalin A1[14,32]V15A
# T4 chain: GAPVWAFQAKDVENASAPV
# T5: Presegetalin A1[14,32]A19V
# T5 chain: GVPVWVFQAKDVENASAPV
# T6: Presegetalin A1[14,32]G14A
# T6 chain: AVPVWAFQAKDVENASAPV
# T7: Presegetalin A1[14,32]
# T7 chain: GVPVWAFQAKDVENASAPV
# T8: Presegetalin A1[14,32] P16p W18a
# T8 chain: GVPVAAFQAKDVENASAPV
# T9: Presegetalin A1[14,32] P16p W18A
# T9 chain: GVPVAAFQAKDVENASAPV
# Assays:
# [1] = biological target: T1, Presegetalin A1[14,32]V17A
# [2] = biological target: T2, Presegetalin A1[14,32]P16A
# [3] = biological target: T3, Presegetalin A1[14,32]W18A
# [4] = biological target: T4, Presegetalin A1[14,32]V15A
# [5] = biological target: T5, Presegetalin A1[14,32]A19V
# [6] = biological target: T6, Presegetalin A1[14,32]G14A
# Presegetalin A1[14,32] = biological target: T7, Presegetalin A1[14,32]
# [7] = biological target: T8, Presegetalin A1[14,32] P16p W18a
# [8] = biological target: T9, Presegetalin A1[14,32] P16p W18A
Protein,activity on alanine scan mutant (LC/MS) [1],activity on alanine scan mutant (LC/MS) [2],cyclic peptide product (LC/MS) [3],activity on alanine scan mutant (LC/MS) [4],activity on alanine scan mutant (LC/MS) [5],cyclic peptide product (LC/MS) [6],"production of segetalin A (LC/MS) (Presegetalin A1[14,32])","cyclic peptide product (LC/MS, MS/MS) [7]",cyclization (LC/MS) [7],relative activity (LC/MS) [7],"cyclic peptide product (LC/MS, MS/MS) [8]"
Dianthus superbus PCY1-c250 (recombinant) (protein) MASCGFTKPLHYPTARRDETVVDDYFGLKVADPYRWLEDRDSEETKKFVEDQVKFTDSVLEECELIGKVKQKIIDYVSFPRWSVPLRRANKYFHFYNSGLQSQNVYRMQDGLDGKPEVICDPNLREDGRTGLSVYSVSEDAKYFAFGIAEGFTEWLTIRVMRTEDRSMLPDCLTEVKFTTVHWTHDNKGFFYCAYPPLEEGQDHMVHASISQEARYHYLGTDQSEDILCWKDPENPTHHFRSYFTDDGKYFVLYILEGCDKKNKVYCLDLTKLPNGPESLRGREGSAPFIKLVDSFDASYTVIANDDSVFTLLTDKDAKRCKLVRVDLNNPSVWTDVIPESKDLLESAHAVNGNQLLLRYLRDVKHVLELRDLESGSLLHSIPIDIGAVDGINARRGDSIVFFRFTSILTPGIIYQCDLKNDPTQLNIFRESLVPGFDRSEFEVKQVFVPGKDGTKIPAFIAARKGISLDGSHPCEMHGYGGYGHNMMPTFSASRLVFLKHLGGVFCLANIRGGGEYGVDWHKAGARENKQTSFDDFISSAEFLVSSGYSAPKKICIEGGSNGGLLIAVCITQRPDLFGCAEPNCGPMDMLRFHKFTLGYLWTDEYGNPDNEEEFNWLIKYSPLHNVRRPWEQPGHEQTQYPATMIITADHDDRVVPMHSYKMIATMQHVLCTSLENSPQKYPIICRIQRKASHYGRSTMVQIAEVADRYGFMAKALNATWTD,D. superbus PCY1-c250 activity was comparable to that of S. vaccaria PCY1,D. superbus PCY1-c250 activity was comparable to that of S. vaccaria PCY1,D. superbus PCY1-c250 appeared to produce relatively more cyclic peptide than did S. vaccaria PCY1 from No. 11,D. superbus PCY1-c250 activity was comparable to that of S. vaccaria PCY1,D. superbus PCY1-c250 activity was comparable to that of S. vaccaria PCY1,there was no detectable cyclic peptide made from No. 7 by D. superbus PCY1-c250,show strong enzymatic activity ... similar to that of S. vaccaria PCY1,–,–,–,–
Dianthus superbus PCY1-c1141 (recombinant) (protein) MAVSCGFTKTLHYPPVRRDETVVDDYFGLKIADPYRWLEDLNSEETKKFVDDQVKFTESVLEECELIGKVKQKIIDYVSFPRWSVPLRRANKYFHFYNSGLQSQNVYRMQDGLDGKPEVVYDPNLREGGRTGLTLYSVSEDANYFAFGIAEGFTEWLTIRVMRIEDRSMLPDCITGVKHSGIHWTHDNKGFFYCPYPPLEEGQDLMIHPSMSQEVRYHFIGTDQSEDILCWKDTVNPTHHLKSYFTDDGKYFVLYILEGCNNMNKVYCLDLTELPNGPESLRGREGSAPFIKLVDSFDALYTAIANDGSVFTFLTDKDATRRKLVRVDLNNPSVWTDVLPESKDLLESAHAVNGNQLLIRYLSDVKHILELRDLESGSLLHRIPIDIGAVDGTINARRGDSVVFFKFTSILTPSIIYQCDLKNDPPQLKIFRESVVPGFDRSEFEVKQLFAPSKDGTMIPTFVAARKGISLDGSHPCEMHGYGAYGQCMMPTFSASRLVFLKHLGGVFCLANIRGGGEYGVEWHKAGARENKQNSYDDFIASAEFLVSSGYTAPKKICIEGGSNGGLLIAVCITQRPDLFGCAEPNCGPMDMIRFHHFTQGYVVMSEYGSPDKEEEFNWLIKYSPLHNVRRPWEQPGHEQTQYPATMIITADHDDRVVPFHSYKMIATMQHVLCTSLENSPQKFPIICRIQRNASHYGRATMVQIAEVADRYGFMAKALNATWTD,–,–,–,–,–,–,show strong enzymatic activity ... similar to that of S. vaccaria PCY1,S. vaccaria PCY1 and D. superbus PCY1-c1141 made cyclic peptides from both No. 31 and No. 32,also demonstrated the ability to cyclize alternating D- and L-amino acid polypeptide substrates (FIG. 12a) in a similar manner to S. vaccaria PCY1,D. superbus PCY1-c1141 was relatively more active on No. 32 than was S. vaccaria PCY1,S. vaccaria PCY1 and D. superbus PCY1-c1141 made cyclic peptides from both No. 31 and No. 32
Silene vulgaris PCY1-c150 (recombinant) (protein) MASSAFSKPLNYPPVRRDETVVNDYFGVKVADPYRWLEDQEGEETIEFVDNQVKLADSVLEECELRDKIKQKITDLVNFPRCGVPFKRADKYFHFYNSGLQAQNVLHMQDDLDGKPEVLYDPNLREGGRSGLHQYAVSEDAKYLAFGINSGFSEWLTIKVMRIEDRSVLPDSLSWVKFSGIHWTHDSKGFFFSPYPPATEGLEVGMKTNSSFNQELRYHFLGTDESEDVLCWRDPENPTHHLKSDLTADGKYLLLYISAGCDATNKVYYMDLTTLPNGLEGLRGGKDLLPFKRLIDEFDATYTAIANDGSVFTFLTNKDAPRNKIVRVDLNNPDIWTEVIPESKKDVLESAHAVNGNQLLVRYLSDVKHILEVRDLESGSLLHRLPVDLGVIDGITARPQDSVVFFKFTSFLTPTIIYQCDLKEDSPQLKIFRESVVPEFDRSEFEVKQVFVSAKDGTKIPMFIVARKGISLDGSHPCELHGYGGFSISIKPFFSASRIVILKHLDAVFCVANIRGGGEYGEEWHQAGWREKKQIVFDDFISSAEYLVSSGYTQPQKLSIEGGSNGGLLVAACINQRPDLFGCAQANCGVMDMLRFHKFTLGYLWTSDYGCSEKEEDFNWLIKYSPIHNVRRPWEHSKNPQLQYPAVMILTADHDDRVVPLHSFKLLATLQHVLCTSLEDSPQKNPIIARIERKASHCGRATMKQIDEAADRYAFMAKALRATWTD,–,–,–,–,–,–,"has the same enzymatic activity as that of S. vaccaria PCY1, (FIG. 7d) albeit weaker than that of S. vaccaria PCY1 for production of segetalin A",–,–,–,–
